# T1: nSR100 (Mus musculus, UniProt Q8BKA3)
# T1 construct: host or cells: mouse N2A cells
# T1 sequence (Q8BKA3 1-608): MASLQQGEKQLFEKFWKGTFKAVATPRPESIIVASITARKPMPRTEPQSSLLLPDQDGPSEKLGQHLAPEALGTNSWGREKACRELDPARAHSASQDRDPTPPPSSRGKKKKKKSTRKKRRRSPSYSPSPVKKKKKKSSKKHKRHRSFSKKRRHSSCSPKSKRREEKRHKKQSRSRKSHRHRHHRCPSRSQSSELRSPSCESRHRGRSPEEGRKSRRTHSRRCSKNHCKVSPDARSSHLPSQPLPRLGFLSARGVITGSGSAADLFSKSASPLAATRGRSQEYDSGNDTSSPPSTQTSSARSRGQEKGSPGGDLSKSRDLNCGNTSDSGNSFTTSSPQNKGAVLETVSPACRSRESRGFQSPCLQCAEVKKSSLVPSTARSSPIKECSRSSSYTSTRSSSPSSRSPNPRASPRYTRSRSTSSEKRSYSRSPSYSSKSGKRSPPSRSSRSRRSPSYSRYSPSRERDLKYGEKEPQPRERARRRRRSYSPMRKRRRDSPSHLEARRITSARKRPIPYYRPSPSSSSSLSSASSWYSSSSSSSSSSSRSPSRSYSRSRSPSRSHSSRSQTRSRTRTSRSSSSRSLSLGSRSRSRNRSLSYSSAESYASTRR
# B1: Prpf38b (protein, UniProt Q80SY5 2-542, looked up)
# Pre-mRNA-splicing factor 38B: ANNSPALTGNSQPQHQAAAAVTQQQQQCGGGGGATKPAVSGKQGNVLPLWGNEKTMNLNPMILTNILSSPYFKVQLYELKTYHEVVDEIYFKVTHVEPWEKGSRKTAGQTGMCGGVRGVGTGGIVSTAFCLLYKLFTLKLTRKQVMGLITHTDSPYIRALGFMYIRYTQPPTDLWDWFESFLDDEEDLDVKAGGGCVMTIGEMLRSFLTKLEWFSTLFPRIPVPVQKNIDQQIKTRPRKIKKDGKEGIEEIDRHVERRRSRSPRRSLSPRRSPRRSRSRSHHREGHGSSSFDRELEREKERQRLEREAKEREKERRRSRSIDRGLDRRRSRSRERHRSRSRSRDRKGDRRDRDREREKENERGRRRDRDYDKERGSDRERDRERSRERSKEQRSRGDGEEKKHKEDKEDRRHRDDKKESKKKHSRSRSRERKHRSRSRNAGKRSRSRSKDKSSRHKNESKEKANKRSRSGSQGRTGSVEKRKREHSPSREKSRKRSRSQDRSHKREHNDSKDQSDRQDHQSSQSGEPESQEKEHKSKDETV
# B2: Puf60 (protein, UniProt Q3UEB3 1-564, looked up)
# Poly(U)-binding-splicing …: MATATIALQVNGQQGGGSEPAAAAAAAAAAVVAAGDKWKPPQGTESIKMENGQSTGTKLGLPPLTPEQQEALQKAKKYAMEQSIKSVLVKQTIAHQQQQLTNLQMAAVTMGFGDPLSPLQSMAAQRQRALAIMCRVYVGSIYYELGEDTIRQAFAPFGPIKSIDMSWDSVTMKHKGFAFVEYEVPEAAQLALEQMNSVMLGGRNIKVGRPSNIGQAQPIIDQLAEEARAFNRIYVASVHQDLSDDDIKSVFEAFGKIKSCTLARDPTTGKHKGYGFIEYEKAQSSQDAVSSMNLFDLGGQYLRVGKAVTPPMPLLTPATPGGLPPAAAVAAAAATAKITAQEAVAGAAVLGTLATPGLVSPALTLAQPLGALPQAVMAAQAPGVITGVTPARPPIPVTIPSVGVVNPILASPPTLGLLEPKKEKEEEELFPESERPEMLSEQEHMSISGSSARHMVMQKLLRKQESTVMVLRNMVDPKDIDDDLEGEVTEECGKFGAVNRVIIYQEKQGEEEDAEIIVKIFVEFSMASETHKAIQALNGRWFGGRKVVAEVYDQERFDNSDLSA
# B3: Dhx8 (protein, UniProt A2A4P0 1-1244, looked up)
# ATP-dependent RNA helicase …: MAVAVAAAGVLMGSEPGPAEELAKLEYLSLVSKVCTELDNHLGINDKDLAEFVISLAEKNTTFDTFKASLVKNGAEFTDSLISNLLRLIQTMRPPAKPSTSKDPVVKPKTEKEKLRELFPVLCQPDNPSARTMLDEEDVKVAVDVLKELEALMPSAAGQEKQRDPEHRDRTKKKKRSRSRDRDRDRDRDRDRDRDRDRDRDKDRERDRDRERDRERDRERDHKRRHRSRSRSHSRTRERTKGKSRYRSRSRSQSPFKDRKDREKYGERNLDRWRDKHVDRPPPEEPAIGDIYNGKVTSIMQFGCFVQLEGLRKRWEGLVHISELRREGRVANVADVVSKGQRVKVKVLSFTGTKTSLSMKDVDQETGEDLNPNRRRNLVGETNEETSMRNPDRPTHLSLVSAPEVEDDSLERKRLTRISDPEKWEIKQMIAANVLSKEEFPDFDEETGILPKVDDEEDEDLEIELVEEEPPFLRGHTKQSMDMSPIKIVKNPDGSLSQAAMMQSALAKERRELKQAQREAEMDSIPMGLNKHWVDPLPDAEGRQIAANMRGIGMMPNDIPEWKKHAFGGNKASYGKKTQMSILEQRESLPIYKLKEQLVQAVHDNQILIVIGETGSGKTTQITQYLAEAGYTSRGKIGCTQPRRVAAMSVAKRVSEEFGCCLGQEVGYTIRFEDCTSPETVIKYMTDGMLLRECLIDPDLTQYAIIMLDEAHERTIHTDVLFGLLKKTVQKRQDMKLIVTSATLDAVKFSQYFYEAPIFTIPGRTYPVEILYTKEPETDYLDASLITVMQIHLTEPPGDILVFLTGQEEIDTACEILYERMKSLGPDVPELIILPVYSALPSEMQTRIFDPAPPGSRKVVIATNIAETSLTIDGIYYVVDPGFVKQKVYNSKTGIDQLVVTPISQAQAKQRAGRAGRTGPGKCYRLYTERAYRDEMLTTNVPEIQRTNLASTVLSLKAMGINDLLSFDFMDAPPMETLITAMEQLYTLGALDDEGLLTRLGRRMAEFPLEPMLCKMLIMSVHLGCSEEMLTIVSMLSVQNVFYRPKDKQALADQKKAKFHQTEGDHLTLLAVYNSWKNNKFSNPWCYENFIQARSLRRAQDIRKQMLGIMDRHKLDVVSCGKSTVRVQKAICSGFFRNAAKKDPQEGYRTLIDQQVVYIHPSSALFNRQPEWVVYHELVLTTKEYMREVTTIDPRWLVEFAPAFFKVSDPTKLSKQKKQQRLEPLYNRYEEPNAWRISRAFRRR
# B4: Ccnb2 (protein, UniProt P30276 1-398, looked up)
# G2/mitotic-specific cyclin-B2: MALLRRPTVSSDLKNIDTEVIPKAKSHVTIRRAVLEEIGNKVRNRTTQVAKKPQNTKVPALPTKVTNVNKQPKPTASVKPVQMEALAPKDRPPAPEDVSMKEESLCQAFSDALLCKIEDIDNEDRENPQLCSDYVKDIYQYLRQLEVLQSINPHFLDGRDINGRMRAILVDWLVQVHSKFRLLQETLYMCIAIMDRFLQAQLVCRKKLQLVGITALLLASKYEEMFSPNIEDFVYITDNAYTSSQIREMETLILKELKFELGRPLPLHFLRRASKAGEVDVEQHTLAKYLMELTLVDYDMVHYHPSQVAAAASCLSQKVLGQGKWNLKQQYYTGYMESEVLEVMQHMAKNVVKVNDNRTKFIAVKNKYASSRLLKISTIPQLNSKIIKDLASPLLGSP
# B5: Sf3a3 (protein, UniProt Q9D554 1-501, looked up)
# Splicing factor 3A subunit 3: METILEQQRRYHEEKERLMDVMAKEMLTKKSTLRDQINSDHRTRAMQDRYMEVSGNLRDLYDDKDGLRKEELNAISGPNEFAEFYNRLKQIKEFHRKHPNEICVPMSVEFEELLKARENPSEEAQNLVEFTDEEGYGRYLDLHDCYLKYINLKASEKLDYITYLSIFDQLFDIPKERKNAEYKRYLEMLLEYLQDYTDRVKPLQDQNELFGKIQTDFEKKWDNGTFPGWPKETSSALTHAGAHLDLSAFSSWEELASLGLDRLKSALLALGLKCGGTLEERAQRLFSTKGKSLESLDTSLFAKNPKSKGTKRDTERNKDIAFLEAQIYEYVEILGEQRQLTHENVQRKQARTGEEREEEEEEQISESESEDEENEIIYNPKNLPLGWDGKPIPYWLYKLHGLNINYNCEICGNYTYRGPKAFQRHFAEWRHAHGMRCLGIPNTAHFANVTQIEDAVSLWAKLKLQKASERWQPDTEEEYEDSSGNVVNKKTYEDLKRQGLL
# Target: T1, nSR100
# Assay: AP-MS nSR100 interaction partners from mouse N2A cells (Table 5)
# Type: binding
# Conditions: bait Srrm4
# From the text: By applying affinity purification coupled to mass-spectrometry (AP-MS), several interaction nSR100 partner proteins were detected that provide insight into mechanisms of post-translational regulation of nSR100 levels.
AvgP (average of the SAINT scores),MaxP (maximal SAINT score),Molecule
1,1,B1
1,1,B2
0.99,1,B3
1,1,B4
0.99,0.99,B5

# Same assay, conditions: bait Srrm4, 0.1 added to prevent division by 0
row,FoldChange between the prey Avg spectra of the bait and control purifications,Molecule
1,60,B1
2,5.07,B2
3,7.33,B3
4,60,B4
5,10.5,B5

# Same assay, conditions: bait Srrm4, 2 replicates
row,AvgSpec (average number of spectra per replicate),Molecule
1,6,B1
2,73.5,B2
3,11,B3
4,6,B4
5,10.5,B5

# Same assay, conditions: bait Srrm4, biological replicate 1 (first number of the cell), AP-MS
row,Spectra (number of spectra for the prey in the purification of the bait),Molecule
1,6|6,B1
2,55,B2
3,8,B3
4,4,B4
5,11,B5

# Same assay, conditions: bait Srrm4, biological replicate 2 (second number of the cell), AP-MS
row,Spectra (number of spectra for the prey in the purification of the bait),Molecule
1,6|6,B1
2,92,B2
3,14,B3
4,8,B4
5,10,B5

# Same assay, conditions: bait Srrm4, sum of spectra over 2 replicates
row,SpecSum,Molecule
1,12,B1
2,147,B2
3,22,B3
4,12,B4
5,21,B5
